Experimental data published in US20240349732A1 (IMPETUS AGRICULTURE, published 2024).

Molecular target: T1, 57NAAT1like (second extracellular loop of Spodoptera frugiperda sodium-dependent nutrient amino acid … (Spodoptera frugiperda))
T1 construct: 57 aa antigen; also called NAAT antigen
T1 chain: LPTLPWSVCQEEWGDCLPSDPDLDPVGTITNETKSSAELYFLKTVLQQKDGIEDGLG
Assay: ELISA of periplasmic extracts on passively coated non-biotinylated 57NAAT1like

Binder	binding result
NAAT monospecific nanobody #2 (VHH, Llama VHH; also called NAAT2) VHH: QVQLQESGGGVVQTGGSLTLSCKASRRTSGFAMAWFRQAPGMEREFVAGIGRTGDNIHYLDSVKGRFTISRDNTKNTLSLQMNSLRPGDTAVYYCAADVTKSGFIYWGQGTQVTVSS	binds
NAAT monospecific nanobody #29 (VHH, Llama VHH; also called NAAT29) VHH: QVQLQESGGGVVQTGGSLTLSCKASRRTSGFAMAWFRQAPGMEREFVAGIGRTGDNIHYLDSVKGRFTISRDNTKNTLSLQMNNLKPEDTAVYYCLRTMGGTWSEKGQGTQVTVSS	binds
NAAT monospecific nanobody #10 (VHH, Llama VHH; also called NAAT10) VHH: QVQLQESGGGLVQAGGSLTLSCAFSGRTFTHYAMAWFRQAPGKERKFVAGVTRSGPNTYYDDSVQGRFTISRDNAKNTVYLHMNSLKPEDTAVYYCAANSGVVSGYDYWGQGTQVTVSS	binds
NAAT monospecific nanobody #5 (VHH, Llama VHH; also called NAAT5) VHH: QVQLQESGGGLVQPGGSLRLACVLSGGPSSSYGVGWFRQRSGTEREFVAAISGSGRTIHYVDDVKGRFAISRDSAKNAVDLQMNNLKPEDTAVYYCAALALVTTHPTSNVGEWDYWGQGTQVTVSS	binds
NAAT monospecific nanobody #6 (VHH, Llama VHH; also called NAAT6) VHH: QVQLQESGGGVVQTGGSLTLSCKASRRTSGFAMAWFRQAPGMEREFVAGIGRTGDNIHYLDSVKGRFTISRDNTKNTLSLQMNSLKSEDTAVYYCAKVVVVAGSPSFDAWGQGTQVTVSS	binds
NAAT monospecific nanobody #1 (VHH, Llama VHH; also called NAAT1) VHH: QVQLQESGGGLVQAGGSLRLSCAASGRTFSRYAMGWFRQALGKEREFVAGINWSGSMTYYADSVKGRFTISRDNAKNMLYLQMNSLKSEDTAVYYCAGVTVVGGAPAFDYWGQGTQVTVSS	binds

Molecular target: T2, tagless FAW Cadherin antigen (Spodoptera frugiperda)
T2 construct: the batch used for panning is called tagless; also called Sp.f Cadherin
T2 chain: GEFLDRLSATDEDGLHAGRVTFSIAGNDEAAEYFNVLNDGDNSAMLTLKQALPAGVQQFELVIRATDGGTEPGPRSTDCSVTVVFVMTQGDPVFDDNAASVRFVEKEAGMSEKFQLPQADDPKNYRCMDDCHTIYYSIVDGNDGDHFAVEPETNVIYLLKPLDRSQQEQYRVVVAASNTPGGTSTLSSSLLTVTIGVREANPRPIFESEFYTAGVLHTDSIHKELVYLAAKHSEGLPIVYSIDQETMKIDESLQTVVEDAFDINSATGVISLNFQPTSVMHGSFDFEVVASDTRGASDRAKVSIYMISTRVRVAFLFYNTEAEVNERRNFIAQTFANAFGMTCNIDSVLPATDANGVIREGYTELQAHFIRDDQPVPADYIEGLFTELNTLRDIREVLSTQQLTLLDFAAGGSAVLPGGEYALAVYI
Assay: screen of colonies after 3 rounds of phage panning on solid-phase coated tagless FAW Cadherin antigen

Binder	binding result
Cadherin monospecific nanobody #50 (VHH, Llama VHH; also called Cad50) VHH: QVQLQESGGGLVQAGASLRLSCAASRRTGSSLTMGWFRQAPGKEREFVAAISRSGIRTYYADFVKGRFTISRDNGENTLYLQINSLKPEDTAVYYCAASSNPGYYRTAPNQYNFWGPGTQVTVSS	binds
Cadherin monospecific nanobody #2 (VHH, Llama VHH; also called Cad2) VHH: QVQLQESGGGLVQAGASLRLSCAASRRTGSSLTMGWFRQAPGKEREFVAAISRSGIRTYYADFVKGRFTISRDNAKNTLYLQMNSLKPEDTAVYYCAANDKTYGSGLDVYTRRQNYYYWGPGTQVTVSS	binds
Cadherin monospecific nanobody #48 (VHH, Llama VHH; also called Cad48) VHH: QVQLQESGGGLVQAGASLRLSCAASRRTGSSLTMGWFRQAPGREREFVAAISRSGIRTYYADFVKGRFTISRDNAKNTLYLQMNSLKPEDTAVYYCAANDKTYGSGLDVYTRRQDYYYWGPGTQVTVSS	binds
Cadherin monospecific nanobody #43 (VHH, Llama VHH; also called Cad43) VHH: QVQLQESGGGLAQAGASLRLSCAASRRTGSSLTMGWFRQAPGKEREFVAAISRSGIRTYYADFVKGRFTISRDNAKNTLYLQMNSLKPEDTAVYYCAANDKTYGSGLDVYTRRQDYYYWGPGTQVTVSS	binds
Cadherin monospecific nanobody #46 (VHH, Llama VHH; also called Cad46) VHH: QVQLQESGGGSVQAGGSLKLSCAASGTESIFIVMGWYRQAPGKERELVAAMSFGGGTNVTDGVRGRFTISRDFDKNTVDLQMNNLKTEDTAVYYCNAVQWGPRDYWGQGTQVTVSS	binds
